Target: T1, soluble human GPC3 (human, UniProt P51654 25-563, limits assumed)
T1 construct: soluble human GPC3 as analyte; also called glypican 3
Assay: SPR (Biacore), soluble human GPC3

T1 sequence (P51654 other isoform, or with tags, fused parts or gaps limits assumed, form in doubt): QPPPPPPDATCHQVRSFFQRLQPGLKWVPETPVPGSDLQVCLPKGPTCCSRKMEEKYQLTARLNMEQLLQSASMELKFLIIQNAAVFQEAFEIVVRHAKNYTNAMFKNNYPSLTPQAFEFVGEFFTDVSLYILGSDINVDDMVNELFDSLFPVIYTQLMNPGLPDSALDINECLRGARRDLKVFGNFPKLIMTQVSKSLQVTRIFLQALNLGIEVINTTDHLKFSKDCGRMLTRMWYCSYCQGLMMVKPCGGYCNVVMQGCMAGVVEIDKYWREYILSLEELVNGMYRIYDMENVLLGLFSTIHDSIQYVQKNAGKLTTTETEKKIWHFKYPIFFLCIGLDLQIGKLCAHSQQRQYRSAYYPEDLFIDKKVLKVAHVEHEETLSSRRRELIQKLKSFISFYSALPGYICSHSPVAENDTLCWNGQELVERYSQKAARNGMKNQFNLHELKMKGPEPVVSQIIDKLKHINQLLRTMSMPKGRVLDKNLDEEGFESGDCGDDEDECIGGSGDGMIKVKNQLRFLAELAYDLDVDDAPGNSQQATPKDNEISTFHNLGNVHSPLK

Row | Kd | Binder
1 | 1.2 nM | H0610-G1dh/none-Hi-Kn010G3/L0229-k0 (antibody, human IgG1, kappa, single-arm (one Fab)) heavy: not shown EPKSSDKTHTCPPCPAPELLGGPSVFLFPPKPKDTLMISRTPEVTCVVVDVSHEDPEVKFNWYVDGVEVHNAKTKPREEQYNSTYRVVSVLTVLHQDWLNGKEYKCKVSNKALPAPIEKTISKAKGQPREPQVCTLPPSRDELTKNQVSLWCLVKGFYPSDIAVEWESNGQPENNYKTTPPVLDSDGSFFLYSKLTVDKSRWQQGNVFSCSVMHEALHNRYTQKSLSLSP light: DIVMTQSPLSLPVTPGEPASISCRSSQSPVHSNRNTYIHWYQQKPGQAPRLLIYKVSNRFSGVPDRFSGSGSGTDFTLKISRVEAEDVGVYYCYQSTQVPYTFGQGTKLEIKRTVAAPSVFIFPPSDEQLKSGTASVVCLLNNFYPREAKVQWKVDNALQSGNSQESVTEQDSKDSTYSLSSTLTLSKADYEKHKVYACEVTHQGLSSPVTKSFNRGEC
2 | 0.408 nM | H0610-G1dh/none-Hi-Kn010G3/L0227-k0 (antibody, human IgG1, kappa, single-arm (one Fab)) heavy: not shown EPKSSDKTHTCPPCPAPELLGGPSVFLFPPKPKDTLMISRTPEVTCVVVDVSHEDPEVKFNWYVDGVEVHNAKTKPREEQYNSTYRVVSVLTVLHQDWLNGKEYKCKVSNKALPAPIEKTISKAKGQPREPQVCTLPPSRDELTKNQVSLWCLVKGFYPSDIAVEWESNGQPENNYKTTPPVLDSDGSFFLYSKLTVDKSRWQQGNVFSCSVMHEALHNRYTQKSLSLSP light: DIVMTQSPLSLPVTPGEPASISCRSSQSPVHSNRNTYIHWYQQKPGQAPRLLIYKVSNRFSGVPDRFSGSGSGTDFTLKISRVEAEDVGVYYCLQGTQVPYTFGQGTKLEIKRTVAAPSVFIFPPSDEQLKSGTASVVCLLNNFYPREAKVQWKVDNALQSGNSQESVTEQDSKDSTYSLSSTLTLSKADYEKHKVYACEVTHQGLSSPVTKSFNRGEC
3 | 0.093 nM | H0610-G1dh/none-Hi-Kn010G3/L0226-k0 (antibody, human IgG1, kappa, single-arm (one Fab)) heavy: not shown EPKSSDKTHTCPPCPAPELLGGPSVFLFPPKPKDTLMISRTPEVTCVVVDVSHEDPEVKFNWYVDGVEVHNAKTKPREEQYNSTYRVVSVLTVLHQDWLNGKEYKCKVSNKALPAPIEKTISKAKGQPREPQVCTLPPSRDELTKNQVSLWCLVKGFYPSDIAVEWESNGQPENNYKTTPPVLDSDGSFFLYSKLTVDKSRWQQGNVFSCSVMHEALHNRYTQKSLSLSP light: DIVMTQSPLSLPVTPGEPASISCRSSQSPVHSNRNTYIHWYQQKPGQAPRLLIYKVSNRFSGVPDRFSGSGSGTDFTLKISRVEAEDVGVYYCIQGTQVPYTFGQGTKLEIKRTVAAPSVFIFPPSDEQLKSGTASVVCLLNNFYPREAKVQWKVDNALQSGNSQESVTEQDSKDSTYSLSSTLTLSKADYEKHKVYACEVTHQGLSSPVTKSFNRGEC
4 | 0.202 nM | H0610-G1dh/none-Hi-Kn010G3/L0228-k0 (antibody, human IgG1, kappa, single-arm (one Fab)) heavy: not shown EPKSSDKTHTCPPCPAPELLGGPSVFLFPPKPKDTLMISRTPEVTCVVVDVSHEDPEVKFNWYVDGVEVHNAKTKPREEQYNSTYRVVSVLTVLHQDWLNGKEYKCKVSNKALPAPIEKTISKAKGQPREPQVCTLPPSRDELTKNQVSLWCLVKGFYPSDIAVEWESNGQPENNYKTTPPVLDSDGSFFLYSKLTVDKSRWQQGNVFSCSVMHEALHNRYTQKSLSLSP light: DIVMTQSPLSLPVTPGEPASISCRSSQSPVHSNRNTYIHWYQQKPGQAPRLLIYKVSNRFSGVPDRFSGSGSGTDFTLKISRVEAEDVGVYYCVQGTQVPYTFGQGTKLEIKRTVAAPSVFIFPPSDEQLKSGTASVVCLLNNFYPREAKVQWKVDNALQSGNSQESVTEQDSKDSTYSLSSTLTLSKADYEKHKVYACEVTHQGLSSPVTKSFNRGEC

Continued, binder first:

Row | Binder | Kd
5 | H0610-G1dh/none-Hi-Kn010G3/L0219-k0 (antibody, human IgG1, kappa, single-arm (one Fab)) heavy: not shown EPKSSDKTHTCPPCPAPELLGGPSVFLFPPKPKDTLMISRTPEVTCVVVDVSHEDPEVKFNWYVDGVEVHNAKTKPREEQYNSTYRVVSVLTVLHQDWLNGKEYKCKVSNKALPAPIEKTISKAKGQPREPQVCTLPPSRDELTKNQVSLWCLVKGFYPSDIAVEWESNGQPENNYKTTPPVLDSDGSFFLYSKLTVDKSRWQQGNVFSCSVMHEALHNRYTQKSLSLSP light: DIVMTQSPLSLPVTPGEPASISCRSSQSLVHSNRNTYIHWYQQKPGQAPRLLIYKVSNRFRGVPDRFSGSGSGTDFTLKISRVEAEDVGVYYCGQGTQVPYTFGQGTKLEIKRTVAAPSVFIFPPSDEQLKSGTASVVCLLNNFYPREAKVQWKVDNALQSGNSQESVTEQDSKDSTYSLSSTLTLSKADYEKHKVYACEVTHQGLSSPVTKSFNRGEC | 2.28 nM
6 | H0610-G1dh/none-Hi-Kn010G3/L0224-k0 (antibody, human IgG1, kappa, single-arm (one Fab)) heavy: not shown EPKSSDKTHTCPPCPAPELLGGPSVFLFPPKPKDTLMISRTPEVTCVVVDVSHEDPEVKFNWYVDGVEVHNAKTKPREEQYNSTYRVVSVLTVLHQDWLNGKEYKCKVSNKALPAPIEKTISKAKGQPREPQVCTLPPSRDELTKNQVSLWCLVKGFYPSDIAVEWESNGQPENNYKTTPPVLDSDGSFFLYSKLTVDKSRWQQGNVFSCSVMHEALHNRYTQKSLSLSP light: DIVMTQSPLSLPVTPGEPASISCRSSQSPVHSNRNTYIHWYQQKPGQAPRLLIYKVSNRFPGVPDRFSGSGSGTDFTLKISRVEAEDVGVYYCYQGTQVPYTFGQGTKLEIKRTVAAPSVFIFPPSDEQLKSGTASVVCLLNNFYPREAKVQWKVDNALQSGNSQESVTEQDSKDSTYSLSSTLTLSKADYEKHKVYACEVTHQGLSSPVTKSFNRGEC | 0.243 nM
7 | H0610-G1dh/none-Hi-Kn010G3/L0220-k0 (antibody, human IgG1, kappa, single-arm (one Fab)) heavy: not shown EPKSSDKTHTCPPCPAPELLGGPSVFLFPPKPKDTLMISRTPEVTCVVVDVSHEDPEVKFNWYVDGVEVHNAKTKPREEQYNSTYRVVSVLTVLHQDWLNGKEYKCKVSNKALPAPIEKTISKAKGQPREPQVCTLPPSRDELTKNQVSLWCLVKGFYPSDIAVEWESNGQPENNYKTTPPVLDSDGSFFLYSKLTVDKSRWQQGNVFSCSVMHEALHNRYTQKSLSLSP light: DIVMTQSPLSLPVTPGEPASISCRSSQPLVHSNRNTYLHWYQQKPGQAPRLLIYKVSNRFRGVPDRFSGSGSGTDFTLKISRVEAEDVGVYYCYQGTQVPYTFGQGTKLEIKRTVAAPSVFIFPPSDEQLKSGTASVVCLLNNFYPREAKVQWKVDNALQSGNSQESVTEQDSKDSTYSLSSTLTLSKADYEKHKVYACEVTHQGLSSPVTKSFNRGEC | 1.36 nM
8 | H0610-G1dh/none-Hi-Kn010G3/L0223-k0 (antibody, human IgG1, kappa, single-arm (one Fab)) heavy: not shown EPKSSDKTHTCPPCPAPELLGGPSVFLFPPKPKDTLMISRTPEVTCVVVDVSHEDPEVKFNWYVDGVEVHNAKTKPREEQYNSTYRVVSVLTVLHQDWLNGKEYKCKVSNKALPAPIEKTISKAKGQPREPQVCTLPPSRDELTKNQVSLWCLVKGFYPSDIAVEWESNGQPENNYKTTPPVLDSDGSFFLYSKLTVDKSRWQQGNVFSCSVMHEALHNRYTQKSLSLSP light: DIVMTQSPLSLPVTPGEPASISCRSSQSPVHSNRNTYIHWYQQKPGQAPRLLIYKVSNRLSGVPDRFSGSGSGTDFTLKISRVEAEDVGVYYCYQGTQVPYTFGQGTKLEIKRTVAAPSVFIFPPSDEQLKSGTASVVCLLNNFYPREAKVQWKVDNALQSGNSQESVTEQDSKDSTYSLSSTLTLSKADYEKHKVYACEVTHQGLSSPVTKSFNRGEC | 0.475 nM
9 | H0610-G1dh/none-Hi-Kn010G3/L0222-k0 (antibody, human IgG1, kappa, single-arm (one Fab)) heavy: not shown EPKSSDKTHTCPPCPAPELLGGPSVFLFPPKPKDTLMISRTPEVTCVVVDVSHEDPEVKFNWYVDGVEVHNAKTKPREEQYNSTYRVVSVLTVLHQDWLNGKEYKCKVSNKALPAPIEKTISKAKGQPREPQVCTLPPSRDELTKNQVSLWCLVKGFYPSDIAVEWESNGQPENNYKTTPPVLDSDGSFFLYSKLTVDKSRWQQGNVFSCSVMHEALHNRYTQKSLSLSP light: DIVMTQSPLSLPVTPGEPASISCRSSQSPVHSNRNTYIQWYQQKPGQAPRLLIYKVSNRFSGVPDRFSGSGSGTDFTLKISRVEAEDVGVYYCYQGTQVPYTFGQGTKLEIKRTVAAPSVFIFPPSDEQLKSGTASVVCLLNNFYPREAKVQWKVDNALQSGNSQESVTEQDSKDSTYSLSSTLTLSKADYEKHKVYACEVTHQGLSSPVTKSFNRGEC | 0.00014 nM

Reference: patent publication US20210388110A1 (published 2021)
